Results published in paper PMC7797001 (Molecular cell, 2020).
Blank lines part the entries; values can stand above or below the molecule they belong to.

Key:
[1] = biological target: SP-BM generated from human proSP-B by proteinase K (human) (UniProt P07988); test: reducing and non-reducing SDS-PAGE
non-reducing SDS-PAGE = biological target: the molecule itself; test: non-reducing SDS-PAGE

stoichiometry N [1]: 2
Molecule: SP-BM generated from human proSP-B by proteinase K (from UniProt P07988 201-279) (domain or fragment)

B1: SP-BM purified from bovine lungs (natural protein, UniProt P15781 188-266, looked up)
chain: FPIPIPYCWLCRTLIKRIQAVIPKGVLAMTVAQVCHVVPLLVGGICQCLVERYSVILLDTLLGRMLPQLVCGLVLRCSS
stoichiometry N (non-reducing SDS-PAGE): 2
